± gives the uncertainty stated by the source.
B1: Pituitary-specific positive transcription factor 1, residues 130 to 198; numbered along this chain, P28069 (parent)
chain: RELEKFANEFKVRRIKLGYTQTNVGEALAAVHGSEFSQTTICRFENLQLSFKNACKLKAILSKWLEEAE

Variants of: B1
Test: abundance fitness (aPCA) (normalised: wild type 0, dead -1); higher = more abundant; growth selection in yeast, the domain comes from the species named
Settings: Homo sapiens

Point of comparison: RELEKFANEFKVRRIKLGYTQTNVGEALAAVHGSEFSQTTICRVENLQLSFKNACKLKAILSKWLEEAE [F44V], abundance fitness -0.974 ± 0.12. Against it:
- RELEKFANEFKVRRIKLGYTQTNVGEALAAVHGSEFSQTTICRFQNLQLSFKNACKLKAILSKWLEEAE [E45Q] — within error, -0.767 ± 0.23
- RELEKFANEFKVRRIKLGYTQTNVGEALAAVHGSEFSQTTICRFVNLQLSFKNACKLKAILSKWLEEAE [E45V] — within error, -0.809 ± 0.15
- RELEKFANEFKVRRIKLGYTQTNVGEALAAVHGSEFSQTTICRFWNLQLSFKNACKLKAILSKWLEEAE [E45W] — within error, -0.762 ± 0.12
- RELEKFANEFKVRRIKLGYTQTNVGEALAAVHGSEFSQTTICRFFNLQLSFKNACKLKAILSKWLEEAE [E45F] — within error, -0.878 ± 0.17
- RELEKFANEFKVRRIKLGYTQTNVGEALAAVHGSEFSQTTICRFANLQLSFKNACKLKAILSKWLEEAE [E45A] — higher, -0.415 ± 0.1
- RELEKFANEFKVRRIKLGYTQTNVGEALAAVHGSEFSQTTICRFSNLQLSFKNACKLKAILSKWLEEAE [E45S] — within error, -0.92 ± 0.1
- RELEKFANEFKVRRIKLGYTQTNVGEALAAVHGSEFSQTTICRFRNLQLSFKNACKLKAILSKWLEEAE [E45R] — within error, -0.987 ± 0.18
- RELEKFANEFKVRRIKLGYTQTNVGEALAAVHGSEFSQTTICRFTNLQLSFKNACKLKAILSKWLEEAE [E45T] — within error, -0.821 ± 0.13
- RELEKFANEFKVRRIKLGYTQTNVGEALAAVHGSEFSQTTICRFLNLQLSFKNACKLKAILSKWLEEAE [E45L] — within error, -0.883 ± 0.14
- RELEKFANEFKVRRIKLGYTQTNVGEALAAVHGSEFSQTTICRFMNLQLSFKNACKLKAILSKWLEEAE [E45M] — within error, -0.893 ± 0.31
- RELEKFANEFKVRRIKLGYTQTNVGEALAAVHGSEFSQTTICRFHNLQLSFKNACKLKAILSKWLEEAE [E45H] — within error, -1.17 ± 0.32
- RELEKFANEFKVRRIKLGYTQTNVGEALAAVHGSEFSQTTICRFDNLQLSFKNACKLKAILSKWLEEAE [E45D] — within error, -0.991 ± 0.31
- RELEKFANEFKVRRIKLGYTQTNVGEALAAVHGSEFSQTTICRFCNLQLSFKNACKLKAILSKWLEEAE [E45C] — within error, -0.763 ± 0.2
- RELEKFANEFKVRRIKLGYTQTNVGEALAAVHGSEFSQTTICRFYNLQLSFKNACKLKAILSKWLEEAE [E45Y] — within error, -0.993 ± 0.31
- RELEKFANEFKVRRIKLGYTQTNVGEALAAVHGSEFSQTTICRFGNLQLSFKNACKLKAILSKWLEEAE [E45G] — within error, -0.961 ± 0.17
- RELEKFANEFKVRRIKLGYTQTNVGEALAAVHGSEFSQTTICRFENLLLSFKNACKLKAILSKWLEEAE [Q48L] — higher, -0.406 ± 0.065
- RELEKFANEFKVRRIKLGYTQTNVGEALAAVHGSEFSQTTICRFENLMLSFKNACKLKAILSKWLEEAE [Q48M] — higher, -0.505 ± 0.27
- RELEKFANEFKVRRIKLGYTQTNVGEALAAVHGSEFSQTTICRFENLCLSFKNACKLKAILSKWLEEAE [Q48C] — higher, -0.586 ± 0.12
- RELEKFANEFKVRRIKLGYTQTNVGEALAAVHGSEFSQTTICRFENLELSFKNACKLKAILSKWLEEAE [Q48E] — higher, -0.003 ± 0.07
- RELEKFANEFKVRRIKLGYTQTNVGEALAAVHGSEFSQTTICRFENLSLSFKNACKLKAILSKWLEEAE [Q48S] — higher, -0.389 ± 0.094
- RELEKFANEFKVRRIKLGYTQTNVGEALAAVHGSEFSQTTICRFENLGLSFKNACKLKAILSKWLEEAE [Q48G] — higher, -0.673 ± 0.088
- RELEKFANEFKVRRIKLGYTQTNVGEALAAVHGSEFSQTTICRFENLALSFKNACKLKAILSKWLEEAE [Q48A] — higher, -0.629 ± 0.16
- RELEKFANEFKVRRIKLGYTQTNVGEALAAVHGSEFSQTTICRFENLILSFKNACKLKAILSKWLEEAE [Q48I] — within error, -0.758 ± 0.23
- RELEKFANEFKVRRIKLGYTQTNVGEALAAVHGSEFSQTTICRFENLFLSFKNACKLKAILSKWLEEAE [Q48F] — within error, -0.889 ± 0.4
- RELEKFANEFKVRRIKLGYTQTNVGEALAAVHGSEFSQTTICRFENLHLSFKNACKLKAILSKWLEEAE [Q48H] — within error, -0.66 ± 0.2
- RELEKFANEFKVRRIKLGYTQTNVGEALAAVHGSEFSQTTICRFENLKLSFKNACKLKAILSKWLEEAE [Q48K] — higher, -0.476 ± 0.18
- RELEKFANEFKVRRIKLGYTQTNVGEALAAVHGSEFSQTTICRFENLDLSFKNACKLKAILSKWLEEAE [Q48D] — higher, -0.055 ± 0.066
- RELEKFANEFKVRRIKLGYTQTNVGEALAAVHGSEFSQTTICRFENLRLSFKNACKLKAILSKWLEEAE [Q48R] — higher, -0.331 ± 0.088
- RELEKFANEFKVRRIKLGYTQTNVGEALAAVHGSEFSQTTICRFENLPLSFKNACKLKAILSKWLEEAE [Q48P] — higher, -0.506 ± 0.21
- RELEKFANEFKVRRIKLGYTQTNVGEALAAVHGSEFSQTTICRIENLQLSFKNACKLKAILSKWLEEAE [F44I] — within error, -0.861 ± 0.18
- RELEKFANEFKVRRIKLGYTQTNVGEALAAVHGSEFSQTTICRHENLQLSFKNACKLKAILSKWLEEAE [F44H] — higher, -0.565 ± 0.24
- RELEKFANEFKVRRIKLGYTQTNVGEALAAVHGSEFSQTTICREENLQLSFKNACKLKAILSKWLEEAE [F44E] — within error, -0.72 ± 0.18
- RELEKFANEFKVRRIKLGYTQTNVGEALAAVHGSEFSQTTICRRENLQLSFKNACKLKAILSKWLEEAE [F44R] — within error, -0.871 ± 0.14
- RELEKFANEFKVRRIKLGYTQTNVGEALAAVHGSEFSQTTICRWENLQLSFKNACKLKAILSKWLEEAE [F44W] — within error, -0.909 ± 0.17
- RELEKFANEFKVRRIKLGYTQTNVGEALAAVHGSEFSQTTICRMENLQLSFKNACKLKAILSKWLEEAE [F44M] — within error, -0.89 ± 0.34
- RELEKFANEFKVRRIKLGYTQTNVGEALAAVHGSEFSQTTICRLENLQLSFKNACKLKAILSKWLEEAE [F44L] — higher, -0.76 ± 0.077
- RELEKFANEFKVRRIKLGYTQTNVGEALAAVHGSEFSQTTICRNENLQLSFKNACKLKAILSKWLEEAE [F44N] — within error, -1.11 ± 0.38
- RELEKFANEFKVRRIKLGYTQTNVGEALAAVHGSEFSQTTICRQENLQLSFKNACKLKAILSKWLEEAE [F44Q] — within error, -0.885 ± 0.28

— the Human Domainome abundance scans (Beltran et al. 2025)
